Results from publication PMC6167206 (Molecular microbiology, 2018).

Biological target: the molecule itself
Experiment: cross-linking

B1: AcpA-His (natural protein)
chain: MEKDISRKIDLLNILIEEKRWFTLFELEKNLNCSSKTIRKDISIINDLLPKTIFIHSKKGKGVKLSLPQNQSISEAISNLLKKSLTFLAIQQLLEERSNTVTSLADKLYLPISSTNIVLKRVSKYIKKFGLSLEKKPLRIVGDEFQIILMFSERYLESYPDTEWPFTEYKEEMLIDYINYIEEKLEIVFYSNDKRRMAFIMTILFKRIKQGHKVKFSEWIIKETMESIYYKKIFEGKNVIKVNKNRSLNIEEQVLLVIMVKLSRYVSKDENNLKQEELVLYKEGESTTYTYVKNFISILEQELKIDLNNNEEFVYGMIEYCREAFHILKFIPILKAPEKDTCKYIKKHYEETFYLVKRAYNKWGAEMKLTDIPDEEIAKVTMRIVAIGKQHNINRKKVLLITGEGKSWEEYMKSRINKRYGDQLKFVGGHAKILNGNTDNIDNIDIDFIITTVPLNFSWKSIVYVSPILQERDFYEIGIFASK
stoichiometry N: 2
